36 sequences from the supplement of paper PMC10567573 can be followed below.

The nature of this data set: protein stability index of a GFP-peptide fusion (GPS, HEK-293T) (PSI 1-6); higher = more stable. Particulars: c terminus: a fixed tail appended.

± gives the standard deviation.
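Note: 24-mer peptide tiles fused after GFP, lentivirally expressed, FACS-sorted into six equal bins by GFP/DsRed ratio, decoded by Illumina sequencing, PSI is the read-weighted mean bin number.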

For PQGDEEDIASRYPTLWTEQVKSRQ [SMOC2], the protein stability index came out at 4.55 ± 0.17 (treatment: DMSO) and 4.52 ± 0.091 (treatment: MLN4924 1 uM, 8 h).

For the sequence MTQQGAALQNYNNELVKCIEELCQ [SSNA1], the protein stability index reads like this: (treatment: DMSO) 3.33 ± 0.4; (treatment: MLN4924 1 uM, 8 h) 3.4 ± 0.31.

On to ALSGASQPGPSGAPAQRATRGFLR [RETREG3], for which the protein stability index runs as follows: (treatment: DMSO) 4.59 ± 0.16; (treatment: MLN4924 1 uM, 8 h) 4.78 ± 0.073.

On to ENMVTVGFFSCMGTLCIGAAAFSQ [KCNK9], for which the protein stability index by setting is: (treatment: DMSO) 3.39 ± 0.5; (treatment: MLN4924 1 uM, 8 h) 2.91 ± 0.16.

With SMSGGRFRCPTCRHEVIMDRHGVY [TRIM63], the protein stability index runs as follows: (treatment: DMSO) 2.24 ± 0.11; (treatment: MLN4924 1 uM, 8 h) 2.39 ± 0.35.

As to KNEPYLEAACNDVDRWPAPVPGKT [DENND6A], the protein stability index came to 4.62 ± 0.23 (treatment: DMSO) and 4.67 ± 0.19 (treatment: MLN4924 1 uM, 8 h).

Regarding VVEKRLCMYEHGEDTHQSPEPEDE [RSPH3], the protein stability index came out at 5.43 ± 0.43 (treatment: DMSO) and 5.58 ± 0.23 (treatment: MLN4924 1 uM, 8 h).

For IQKRNQRQSGDRRQLPPPPTPANE [WAS], the protein stability index stood at 5.29 ± 0.23 (treatment: DMSO) and 5.16 ± 0.21 (treatment: MLN4924 1 uM, 8 h).

For MLALRGQTGGDVNVEMDAAPGVDL [KRT16], the protein stability index was found to be 4.25 ± 0.17 (treatment: DMSO) and 4.78 ± 0.17 (treatment: MLN4924 1 uM, 8 h).

Take GQSLLKDEALAIAALELLPRELFP [PRAME]: the protein stability index amounted to 2.75 ± 0.41 (treatment: DMSO) and 2.84 ± 0.36 (treatment: MLN4924 1 uM, 8 h).

On to EATKEVHTQAENAEFMRNFQKGQV [HMOX1], for which the protein stability index came out at 5.04 ± 0.17 (treatment: DMSO) and 5.21 ± 0.23 (treatment: MLN4924 1 uM, 8 h).

Take LSSWELEAWYEDLQEVLSSDENGG [DDIT3]: the protein stability index amounted to 3.19 ± 0.39 (treatment: DMSO) and 3.29 ± 0.34 (treatment: MLN4924 1 uM, 8 h).

YDGRSRLSSVECLDYTADEDGVWY [KLHL12]: the protein stability index by setting is: (treatment: DMSO) 3.55 ± 0.4; (treatment: MLN4924 1 uM, 8 h) 3.76 ± 0.35.

Regarding NLLNMAYGVKSPLSLIARFSPIAI [ELAVL3], the protein stability index reads like this: (treatment: DMSO) 2.83 ± 0.58; (treatment: MLN4924 1 uM, 8 h) 2.81 ± 0.65.

In the case of GILHYAHGDSQQTHLLKQGRSSMG [CRY1], the protein stability index (treatment: DMSO) stood at 3.6 ± 0.23 and the protein stability index (treatment: MLN4924 1 uM, 8 h) is 3.52 ± 0.3.

As for LFFPEGTCSNKKALLKFKPGAFIA [LPCAT4], the protein stability index reads like this: (treatment: DMSO) 1.86 ± 0.38; (treatment: MLN4924 1 uM, 8 h) 2.41 ± 0.25.

On to MAGRPHPYDGNSSDPENWDRKLHS [BTBD10], for which the protein stability index is, setting by setting: (treatment: DMSO) 4.63 ± 0.086; (treatment: MLN4924 1 uM, 8 h) 4.71 ± 0.088.

As for SSLLAPAKHLIASMLSKNPEDRPS [PLK2], the protein stability index runs as follows: (treatment: DMSO) 3.2 ± 0.38; (treatment: MLN4924 1 uM, 8 h) 3.37 ± 0.18.

LEELIDMAVLEEIQQELIKQEQSI [RPAIN]: the protein stability index came to 3.34 ± 0.31 (treatment: DMSO) and 3.44 ± 0.3 (treatment: MLN4924 1 uM, 8 h).

Turning to ALGSRGWEPFDWGRLLEALCREEP [FANCE], the protein stability index reads like this: (treatment: DMSO) 2.61 ± 0.2; (treatment: MLN4924 1 uM, 8 h) 2.82 ± 0.33.

Consider MSWEKEEGKSRHVDFQCVKSKSIT [BTBD10], for which the protein stability index by setting is: (treatment: DMSO) 4.48 ± 0.085; (treatment: MLN4924 1 uM, 8 h) 4.42 ± 0.2.

Take EGVATYAAAVLFRMSEDKPQDYKK [CTNNB1]: the protein stability index runs as follows: (treatment: DMSO) 3.45 ± 0.17; (treatment: MLN4924 1 uM, 8 h) 3.46 ± 0.21.

With QTHSNTIVVSLQSKLASMSNDFKS [STX5], the protein stability index came to 2.8 ± 0.11 (treatment: DMSO) and 2.92 ± 0.24 (treatment: MLN4924 1 uM, 8 h).

In the case of GTATRQNNWPPLPSFCPVQPCFFQ [SCAMP3], the protein stability index (treatment: DMSO) is 2.42 ± 0.16 and the protein stability index (treatment: MLN4924 1 uM, 8 h) is 2.45 ± 0.19.

In the case of KPKTTNIELQGVPNDEVHPLLGVK [RBBP5], the protein stability index stood at 4.65 ± 0.7 (treatment: DMSO) and 4.75 ± 0.34 (treatment: MLN4924 1 uM, 8 h).

With FAQADALKGTLVSTLKEVKPTVFI [ACSBG2], the protein stability index (treatment: DMSO) worked out at 2.4 ± 0.52 and the protein stability index (treatment: MLN4924 1 uM, 8 h) was 3.04 ± 0.86.

As to MASNERDAISWYQKKIGAYDQQIW [PHTF1], the protein stability index reads like this: (treatment: DMSO) 2.51 ± 0.39; (treatment: MLN4924 1 uM, 8 h) 2.55 ± 0.16.

With GHEYAAKIINTKKLSARDHQKLER [CAMK2B], the protein stability index is 4.09 ± 0.24 (treatment: DMSO) and 4.32 ± 0.19 (treatment: MLN4924 1 uM, 8 h).

Consider TRRSTAEAFQIVLSHLLGDAGSPY [SPNS1], for which the protein stability index (treatment: DMSO) is 2.52 ± 0.58 and the protein stability index (treatment: MLN4924 1 uM, 8 h) was 2.56 ± 0.46.

Turning to KTRTVFSSTQLCVLNDRFQRQKYL [NANOGP8], the protein stability index by setting is: (treatment: DMSO) 2.5 ± 0.12; (treatment: MLN4924 1 uM, 8 h) 2.67 ± 0.29.

Regarding FGLSILWVLLFTPCSFVCWYRPMY [SCAMP3], the protein stability index reads like this: (treatment: DMSO) 2.97 ± 0.37; (treatment: MLN4924 1 uM, 8 h) 3.48 ± 0.32.

Regarding DQIRQGIQLKSVADGQESTPPTPA [WASL], the protein stability index (treatment: DMSO) turned out to be 5.33 ± 0.16 and the protein stability index (treatment: MLN4924 1 uM, 8 h) is 5.51 ± 0.15.

Regarding GVDPQQKMELGIDLLAYGAKAELP [MYOZ1], the protein stability index runs as follows: (treatment: DMSO) 3.95 ± 0.083; (treatment: MLN4924 1 uM, 8 h) 4.05 ± 0.16.

For the sequence KNTFEFLKENNFQPYPLPHVRHMA [CLK3], the protein stability index (treatment: DMSO) is 2.54 ± 0.26 and the protein stability index (treatment: MLN4924 1 uM, 8 h) turned out to be 2.51 ± 0.12.

Regarding RHLNDDDVTGSVKSERRNLLEDDS [VAMP4], the protein stability index is, setting by setting: (treatment: DMSO) 5.28 ± 0.2; (treatment: MLN4924 1 uM, 8 h) 5.42 ± 0.19.

TLARCAKDILGFAVMFFIVFFAYA [PKD2L1] came in with a protein stability index (treatment: DMSO) of 3.07 ± 0.66 and a protein stability index (treatment: MLN4924 1 uM, 8 h) of 2.68 ± 0.35.
